Test results published in patent publication US20090214428A1 (HENRY M JACKSON FOUNDATION FOR THE ADVANCEMENT OF MILITARY …, published 2009).

Target: T1, myc-tagged NiV G (full-length, from lysates of infected cells) (Nipah virus, UniProt Q9IH62 1-602)
T1 sequence: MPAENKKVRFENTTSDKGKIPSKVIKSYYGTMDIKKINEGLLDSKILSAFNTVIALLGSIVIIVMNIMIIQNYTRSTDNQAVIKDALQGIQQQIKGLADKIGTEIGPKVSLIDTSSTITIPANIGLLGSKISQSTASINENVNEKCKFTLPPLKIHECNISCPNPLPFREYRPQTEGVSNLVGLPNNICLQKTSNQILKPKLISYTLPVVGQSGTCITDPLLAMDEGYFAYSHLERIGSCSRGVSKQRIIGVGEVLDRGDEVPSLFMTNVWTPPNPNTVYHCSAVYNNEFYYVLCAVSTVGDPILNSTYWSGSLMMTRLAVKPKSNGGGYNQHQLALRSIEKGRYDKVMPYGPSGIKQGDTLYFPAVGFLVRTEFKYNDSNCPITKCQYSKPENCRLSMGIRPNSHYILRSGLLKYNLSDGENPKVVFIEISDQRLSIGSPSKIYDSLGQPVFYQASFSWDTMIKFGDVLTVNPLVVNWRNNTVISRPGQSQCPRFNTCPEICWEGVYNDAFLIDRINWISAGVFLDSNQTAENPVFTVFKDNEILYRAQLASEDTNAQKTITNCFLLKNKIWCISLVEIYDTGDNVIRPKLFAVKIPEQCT
Experiment: immunoprecipitation of 35S-labelled myc-tagged G from cell lysate

B1: Fab m102 (Fab, V domains shown)
VH: EVQLVQSGAEVKKPGSSVKVSCKSSGGTFSNYAINWVRQAPGQGLEWMGGIIPILGIANYAQKFQGRVTITTDESTSTAYMELSSLRSEDTAVYYCARGWGREQLAPHPSQYYYYYYGMDVWGQGTTVTVSS
VL: EIVLTQSPGTLSLSPGERATLSCRASQSITNGRLAWYQQKPGQAPRLLIYGVSSRASGIPERFSGSGSGTDFTLTISRLEPEDFAVYYCQQYGSSVLFGPGTKVDIKR
B1: binds.
